Reference: paper PMC4581966 (Cytokine & growth factor reviews, 2015)

T1: Ebi3 subunit of mouse recombinant IL-35 (rIL-35) (mouse), O35228
T1 chain: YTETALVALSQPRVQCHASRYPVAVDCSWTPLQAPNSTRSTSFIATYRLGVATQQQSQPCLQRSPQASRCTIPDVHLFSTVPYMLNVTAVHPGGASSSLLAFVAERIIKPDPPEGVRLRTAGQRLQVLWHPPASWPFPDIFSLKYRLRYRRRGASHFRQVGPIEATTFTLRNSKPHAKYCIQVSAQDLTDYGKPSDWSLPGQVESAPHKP


Columns and labels:
SEC = biological target: the molecule itself; assay: SEC
[1] = biological target: T1, Ebi3 subunit of mouse recombinant IL-35 …; assay: SEC; details: remark: other sources report otherwise

stoichiometry N [1]	Binder	stoichiometry N (SEC)
	IL-12p35 subunit of mouse recombinant IL-35 (rIL-35) (natural protein, UniProt P43431 23-215, looked up) RVIPVSGPARCLSQSRNLLKTTDDMVKTAREKLKHYSCTAEDIDHEDITRDQTSTLKTCLPLELHKNESCLATRETSSTTRGSCLPPQKTSLMMTLCLGSIYEDLKMYQTEFQAINAALQNHNHQQIILDKGMLVAIDELMQSLNHNGETLRQKPPVGEADPYRVKMKLCILLHAFSTRVVTINRVMGYLSSA	2
2	Ebi3 subunit of mouse recombinant IL-35 (rIL-35), O35228 19-228 (natural protein) YTETALVALSQPRVQCHASRYPVAVDCSWTPLQAPNSTRSTSFIATYRLGVATQQQSQPCLQRSPQASRCTIPDVHLFSTVPYMLNVTAVHPGGASSSLLAFVAERIIKPDPPEGVRLRTAGQRLQVLWHPPASWPFPDIFSLKYRLRYRRRGASHFRQVGPIEATTFTLRNSKPHAKYCIQVSAQDLTDYGKPSDWSLPGQVESAPHKP	
